Columns and labels:
[1] = Ligand binding assay by ANS displacement, THC; details: 2 μM protein, 20 μM ANS, 33 μM ligand, 20° C.; for binding to THC by ANS displacement (relative change in fluorescence): FIG. 8; for Purification Status (binding to THC): Table 3
[2] = Ligand binding assay by ANS displacement, CBD; details: 2 μM protein, 20 μM ANS, 33 μM ligand, 20° C.; for binding to CBD by ANS displacement (relative change in fluorescence): FIG. 8; for Purification Status (binding to CBD): Table 3

B1: 30 (protein)
chain: MAYSGRWYEVASLKRGFAGEGQQDCHCTQGIYTPKEGGPEGAIKLEVDTFCVHGGPGGRLSGIQGSVSCADPLLLSYLPEFQTEMEMVEGFVAKCALRFDSLAFLPPEPYVVLRTDYTSYALVRGAKDRSFVQIYSRTPNPGAKFIAEQKAVLGQLGYPANDIVDTPQDCPEMAPQ
modifications: Micractinium conductrix
Question: With B1 as the molecule, how does the “binding to THC by ANS displacement (relative change in fluorescence)” value [1] read?
Answer: Its value is “bind to both THC and CBD”.

Question: What about the “binding to CBD by ANS displacement (relative change in fluorescence)” value [2] of the same molecule?
Answer: Its value is “bind to both THC and CBD”.

B2: SEQ ID NO. 30: PSC68250.1 lipocalin-like domain (partial), Micractinium conductrix (protein)
chain: MAYSGRWYEVASLKRGFAGEGQQDCHCTQGIYTPKEGGPEGAIKLEVDTFCVHGGPGGRLSGIQGSVSCADPLLLSYLPEFQTEMEMVEGFVAKCALRFDSLAFLPPEPYVVLRTDYTSYALVRGAKDRSFVQIYSRTPNPGAKFIAEQKAVLGQLGYPANDIVDTPQDCPEMAPQ
modifications: Micractinium conductrix
notes: PSC68250.1 lipocalin-like domain (partial), Micractinium conductrix
Question: With B2 as the molecule, how does the “binding to THC by ANS displacement (relative change in fluorescence)” value [1] read?
Answer: The value was “binds to THC better than full length”.

Question: And the “Purification Status (binding to THC)” value [1]?
Answer: The value was “Binds to CBD”.

Question: And the “Purification Status (binding to CBD)” value [2]?
Answer: The value was “Binds to CBD”.

B3: 1 (protein)
chain: MTSTEKKDMKAVKGLDLERYMGRWYEIASFPSRFQPKDGVDTRATYTLNPDGTVHVLNETWNGGKRGFIQGSAYKADPKSDEAKLKVKFFVPPFLPVIPVTGDYWVLYIDPEYQHAVIGQPSRSYLWILSRTAHMEEETYKQLVEKAVEEGYDVSKLHKTPQSDTPPESNTAPDDTKGVWWLKSIFGK
modifications: Cluster63 Unique
Question: Which results are given for B3?
Answer: binding to THC by ANS displacement (relative change in fluorescence) [1]: bind to both THC and CBD; binding to CBD by ANS displacement (relative change in fluorescence) [2]: bind to both THC and CBD

B4: SEQ ID NO. 1: Cluster63 Unique, artificial consensus sequence based on a family of homologous plant lipocalin sequences (protein)
chain: MTSTEKKDMKAVKGLDLERYMGRWYEIASFPSRFQPKDGVDTRATYTLNPDGTVHVLNETWNGGKRGFIQGSAYKADPKSDEAKLKVKFFVPPFLPVIPVTGDYWVLYIDPEYQHAVIGQPSRSYLWILSRTAHMEEETYKQLVEKAVEEGYDVSKLHKTPQSDTPPESNTAPDDTKGVWWLKSIFGK
modifications: Cluster63 Unique
Question: Which “Purification Status (binding to THC)” value [1] does the source give for B4 here?
Answer: Its value is “Binds to CBD”.

Question: What about the “Purification Status (binding to CBD)” value [2] of the same molecule?
Answer: The value was “Binds to CBD”.

B5: SEQ ID NO. 121: odorant-binding protein 1a-like, Mus caroli (Ryukyu mouse) (protein, listed as Mus caroli)
chain: MVKFLLLELAFGLAHAQMYGPWKTIAIAADNVDKMEISGELRLYFHQITCEKECKKMNVTFYVDENGQCSLTTITGYLQDDGKTYRSQFQGDNHYATVRTTPENIVFYSENVDRAGRKTKLVYVVGKNGSGSLK
Question: Which “binding to THC by ANS displacement (relative change in fluorescence)” value ([1]; listed as OBP2) does the source give for B5 here?
Answer: The value was “highest binding affinity”.

Question: What about the “Purification Status (binding to THC)” value [1] of the same molecule?
Answer: Its value is “Binds to THC”.

Question: And the “binding to CBD by ANS displacement (relative change in fluorescence)” value ([2]; listed as OBP2)?
Answer: Its value is “highest binding affinity”.

Question: What about the “Purification Status (binding to CBD)” value [2] of the same molecule?
Answer: The value was “Binds to THC”.

B6: SEQ ID NO. 148: Odorant-binding protein, partial, Heterocephalus glaber (naked mole-rat) (protein)
chain: MINGDWCSIYIAADNVEKIEERGELRAYFCHIECQDECRNLSGGDRIMRNKHCCVGLSFRLDGVCQEFTVVGVKDEKSGVYITDYVGKNYFTVVESTEYITLFSNIIVDEKGTKMNVVLVAAKRDSLTEKEKQKFAQLAEEKGIPTENIRNVIAT
modifications: Heterocephalus glaber
Question: For B6, which “Purification Status (binding to THC)” value [1] is on record?
Answer: Its value is “Binds to THC”.

Question: And the “Purification Status (binding to CBD)” value [2]?
Answer: Its value is “Binds to THC”.

B7: 33 (protein, listed as Macleaya cordata)
chain: MIRYSGRWFEVASLKRGFAGSGQEDCHCTQGVYTFDSEAPAIQVDTFCVHGGPDGYITGIRGKVQCLSEEDLEKNETDLEKRVMIREKCYLRFPTLPFIPKEPYDVIATDYDNFALVSGAKDTSFIQIYSRTPNPGPEFIEKYKSYLGNYGYDPSMIKDTPQ
Question: For B7, which “binding to THC by ANS displacement (relative change in fluorescence)” value [1] is on record?
Answer: The value was “bind to both THC and CBD”.

Question: And the “binding to CBD by ANS displacement (relative change in fluorescence)” value [2]?
Answer: Its value is “bind to both THC and CBD”.

B8: SEQ ID NO. 33: OVA10565.1 Lipocalin/cytosolic fatty-acid binding domain (partial), Macleaya cordata (protein, listed as Macleaya cordata)
chain: MIRYSGRWFEVASLKRGFAGSGQEDCHCTQGVYTFDSEAPAIQVDTFCVHGGPDGYITGIRGKVQCLSEEDLEKNETDLEKRVMIREKCYLRFPTLPFIPKEPYDVIATDYDNFALVSGAKDTSFIQIYSRTPNPGPEFIEKYKSYLGNYGYDPSMIKDTPQ
Question: For B8, which “Purification Status (binding to THC)” value [1] is on record?
Answer: Its value is “Binds to CBD”.

Question: What about the “Purification Status (binding to CBD)” value [2] of the same molecule?
Answer: Its value is “Binds to CBD”.

B9: 10 (protein)
chain: MHVSTRQPCGAAPTAWPAQRPRSSPRRLACSAVLRDDARGVLQQAGLKLAAAAAAVLLAAPLHAGAASMPANAPLPALPPAPFDIEQSKQSKLLFDPMAYSGRWYEVASLKRGFAGEGQQDCHCTQGIYTPKEGGPEGAIKLEVDTFCVHGGPGGRLSGIQGSVSCADPLLLSYLPEFQTEMEMVEGFVAKCALRFDSLAFLPPEPYVVLRTDYTSYALVRGAKDRSFVQIYSRTPNPGAKFIAEQKAVLGQLGYPANDIVDTPQDCPEMAPQAMMAAMNRGMSSTPTMPASTPPALAMAGYDLGPAAVVLGEEAPAPVKGIAFDRLRNPLESLKNVFSLFN
modifications: Micractinium conductrix
Question: What does the source list for B9?
Answer: binding to THC by ANS displacement (relative change in fluorescence) [1]: bind to both THC and CBD; binding to CBD by ANS displacement (relative change in fluorescence) [2]: bind to both THC and CBD

B10: SEQ ID NO. 10: PSC68250.1 lipocalin-like domain, Micractinium conductrix (green algae) (protein)
chain: MHVSTRQPCGAAPTAWPAQRPRSSPRRLACSAVLRDDARGVLQQAGLKLAAAAAAVLLAAPLHAGAASMPANAPLPALPPAPFDIEQSKQSKLLFDPMAYSGRWYEVASLKRGFAGEGQQDCHCTQGIYTPKEGGPEGAIKLEVDTFCVHGGPGGRLSGIQGSVSCADPLLLSYLPEFQTEMEMVEGFVAKCALRFDSLAFLPPEPYVVLRTDYTSYALVRGAKDRSFVQIYSRTPNPGAKFIAEQKAVLGQLGYPANDIVDTPQDCPEMAPQAMMAAMNRGMSSTPTMPASTPPALAMAGYDLGPAAVVLGEEAPAPVKGIAFDRLRNPLESLKNVFSLFN
modifications: Micractinium conductrix
Question: With B10 as the molecule, how does the “Purification Status (binding to THC)” value [1] read?
Answer: Its value is “Binds to CBD”.

Question: And the “Purification Status (binding to CBD)” value [2]?
Answer: The value was “Binds to CBD”.
